Test results: the NTF2 design screens of Basanta et al. (2020)

Experiment: protease stability score; higher = more stable; yeast display proteolysis, trypsin and chymotrypsin;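 also: relative to predicted unfolded state with 0 unfolded-like and 1 meaning tenfold more protease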

Going from “HEDEEMSQRMLDELMRFSRTGDWQRSAELADPHVRIIIGDKHLHGMEHWSELLKRIDHSHFHLRHVDIFENHIRLQGELRLHINGVEHRHEVIIKAHKVDGQWILESVEIR” to “DRHEETDRRAVKILLEVIRTGDFETFYRLMDPHARYEYGEKELHGRDKSLKLLEELLRRFGHDKVEVHLKTYSAIDGRMEIHSVVNYNGREHNLHIESDKVNGRWEIRDIHVL”, the protease stability score rises from 0.768 to 1.09.

Compared with “SDEEHLAERASKEWRHSVRTGDEHQLHEMIDPHVKLIVGDKEFHGREHFLEHLKHLRIKNVDIKRIRIIGDKVEIDSELHGHVNGVEIRTREHIHIEKIDGRWVITEVIWV”, “DEYWHHMKKSFEDLHDARHTGDERFVMEMLDPNVRFDINGVEFIGREDWRRHLQELGVDHEEIILHDYHIFNGRVELDVRTVHHIGDYELRRDEHMDLRKVNGRWHIKEIRVR” is lower in protease stability score: 0.955 for the first, 0.209 for the second.

First: DEEEKVIKDVVDMLRKALRTGDEERIRELADPDVRIEQGDKELHGRELWLEWLKEIRTERVILHVRRVRHFNGKIINEIEVRMDVRVGEFRHESTVSTILIMEKFNGRWHIRSMIIE
Second: HELLKLVEEMARITVKLFMTGDWKTFKHLADPHVREIINGRTVHGMEKVVEHRKEFKEELWIESITIHDVEVQGEKAHLNTKLIGHVNGREVEVEIYVNIEIINGRWNLVEIDIR
The protease stability score of the first is lower: 1.5 for the first, 1.76 for the second.

Compared with “DEEKEEFKIASKLFIDSLRTGNEELLSFLFDPHAKSDVNGKNIHGMEILAETMSRLFERYKGMQIRVDEIRFFDGQIHLHGRVNFNGREHTVIVIINKVNGQWRIQDLQID”, “HEDEEHALKLTMDFLRWIYTGDEDTLNKYADPNVRLDIGDKVFHGMEFINKHMKELRFHRIHVKRFEAHVVDGKLRSHMDVRIDGNVDGRRRETDVELIFFWEKIDGRWVNTSIIIHHH” is higher in protease stability score: 1.11 for the first, 1.27 for the second.

First: SESHDLLEEFVRLILHLWRTGDEEILHNMADPNTQMHIGDKTYHGREEAVDVIHKLLKHLRFKHLHIDHIDIQGDWVRITGHLHVKVDGREIQREVSSVVIKINGRWILRSERID
Second: DEREEHAEEIFRELIHWMETGDEKKMRRYFDPHARLEVGDKEFIGREKISEWMVELRLKDHKERHFDVVNGVAEIHGVMDGIIDGRRHRTEVIIDINIINGKFHRIRIIVK
The protease stability score of the first is higher: 2.27 for the first, 1.21 for the second.

Compared with “DEDTRESEKMLSEILESHLTGNWRMIRHLADPHVRVEIGDKTYHGRDNLKRIFLDLLEKLGVDHMEFRDIHIRVQGDKLHIHIKVDLIVGDKVDIMQSHIHVEKINGRWYVHLVHWRLT”, “HEEERLAREYMKRLIHDWVTGDEREHLKLLDPDVRFVQGDKHHHGREEMMRWFQEIRVEDLKHTDEKVYGEKAFVTGHTTWNINGQKIEVKVHYEFVVVNGRVKMIRIDVQ” is higher in protease stability score: 0.817 for the first, 1.22 for the second.

First: TEEERDVEKFIRDTLHYLHTGDEDAVAELMDPNVKFIIGDKHLHGMEALEYWSERFDHFHVRRLEIHHFEIINGRVHIELRIWVEVRYNGRIFELEFRSEYIMYKIDGKWVIKHVRHT
Second: SEEEEEMKRFIEDELRAWRTGDEDLIHEQFDPHVRVIIGEFEYHGRELLHEMFNRIDHIEHIELRIHHVHLQGDKAHLEVEEREHGVFDGKRINVSREINIIIHKIDGRWVHTIIIIE
The protease stability score of the first is higher: 1.56 for the first, 0.606 for the second.

Going from “DEEEKILHDALEELKREFETGDEELWQRLADPHTRVEVGDKEYHGREEFVKMMSDFVRHLRWEELRIRSVHAQGEKVITHIELEMNIDGRREIHNVTIIMRKINGRWHIEFMHKR” to “SEDEEKSKRDAQHWFNNWLTGDWRRTLELADPHARIDINGKELHGMHESLELLTRLIEKLGVDHIEMKKSDVVGDKMHIHGHLDIDGQKRDLTIFLLIIDGRLKHSQFELT”, the protease stability score falls from 0.926 to 0.165.

Going from “SEEEKEYEHWMRLYLHWRLTGDEEAEKRNADPNTRVEFNGKELHGMEVVSEFIIKLRNEMRFEFLEIDDMRVIDGVSHFDVTVDGVIDGKRVRLTLHIILIVINGKIHHIQEEWK” to “DEREKRLKDIALIVMHLLLTGDEERFHELFDPDTKMTLIFNGQIETSHGMEEVRELLRYWLEEIRIEHYHLTEIHLIGDKTHVHGELVGEVNGKRFKTHIHITIVVIDGKVHSVEFELR”, the protease stability score rises from 1.43 to 1.77.

First: HEEEKHAHEVLQLFIESVETGDWRMWEHLADPHVRLEVNGQEVIGREDALRWLEELLKKLGVDHFKLELEDHHIQGEKVRSITRSHIRVNGVRIDRTTHVIIVVINGRLKHIEVRER
Second: TEEEEHALTLMKEWVHNHETGNEDHLSHLMDPNYRWVQGDWHLHGMEDFSRELNKTLDKMGMTEHLRLKDFKVQGNFVEVIGTQHLHINGRTIKIDSTLKLNVINGRIHEVRYTLH
The protease stability score of the first is lower: 0.204 for the first, 0.77 for the second.

Compared with “SEDEKMAERVLRLLYEDILTGDEHALKRLLDPDARLSQGDKQHHGREVLLEWMRTVWERVDHMEFELKDFRFYGNYIIIHGTLTERINGRKLEFEVILYVYKINGKWFLHSIEIR”, “DDVEKDARWLVDELIHLLETGDEDTLLKLADPNTRIEIGDFHFHGRRDLKRILHEMRVKLDHLRIEHLDAQGEWIYIQFHYHQTINVNGRVVHEQRRVELESIKINGRWTIHFFKVK” is lower in protease stability score: 1.85 for the first, 1.28 for the second.

Going from “DEDEKVVKLVFNEIREARRTGDEEKLHELFDPHVRLEQGDKNIHGREYMITQWRELRFHDYRINITHRTTYNGVAKVDGEVSVDYRIDGVRFHDKFRIKIVILKFDGRWMIHSEHIE” to “DEEDEELHRILQLLKEYWKTGDWERFHELADPNPLLIINGVENHGMDSVKHAWEEFRRRIDHNEKIEDKDSKRQGEFIVLHVKVDGHVNGRRTETDMHIILLIVNGKVKDVEIRIR”, the protease stability score rises from 0.822 to 1.38.

Going from “DEHERLAEIALRLYVHDIRTGDEHRLRKLFDPHVRFVIGDKVYHGWEEMKWILEHIRRELGVKHIKDEDSRHVHLQGDKMYTELRLHVNQGDYETELEVFMVSVKVNGQWLTHSFELR” to “SDLEKLAEHTAKEIIHYWLTGDWKSLTELADPHVKLDIDINGRREHHHGWERVIEFFDRFRKRIDHHHIHIDSIDIQGDKVHIDGKLHVHQGDKDLTIKMTIIVIVVDGRIKSLRVIIL”, the protease stability score rises from 1.21 to 2.13.

Going from “DHEEEEAERMARKIIHVLHTGDFDSWSHLADPNVRIEVGDKELHGREDLRKLFHLWDERFKNATIMVKDMRVQGNKVHLDHRLNIDGRTIHTTSEIIVINGRIHTVIIDEK” to “TESEKEAHDAVKRSIDSWLTGDEHDMAELLDPNVRLEIGDKTFIGREEFVKWLKDVREKFKGVRLHIRDYRVHVVGDKVRVEIDIQEDYGDKFHDVTLVFILRKIDGRWHNQSVEVRIE”, the protease stability score falls from 2.29 to 1.58.

First: KEEEELVKKMLDLLVEAWETGDWKLLDHLLDPNVKLEVDGVLHIGREEAVRVMLEFHKRVDHVEVRDRDFRIQGEKVRHEVELRLHQGEFHVITRIEIEVTKVNGRWQMKHIRIE
Second: DEDDERSRLFLEEMMRTLLTGDERKSHELADPRVRINVNGRHIHGRELWNRFVHEARIRITHHRIHSRDIYNGRIELDVELRGDIHIGDKDIHLDTRIILFVLKVNGRWHLEIMEIV
The protease stability score of the first is higher: 2.56 for the first, 1.25 for the second.

First: SETHEILERIMRMILEILYTGDEESMSRLLDPHVKLVVVIGDKELHLHGRENALRWLVHWRIEDYRLRRYTVQGDKAHVDTESTGNYNGQREESRFSLHVKVINGKIHNMKFEFE
Second: HEEDKWMKEVLYRFYEHYQTGDEDSLVKLMDPHAKLSFEGRENHGRDAIKTYWDIMGFDHLRLRDYEIRIIDGRAHLIVDTEIEIGDKRRRTIIIMHVLKFNGRWIVTHFHVEVR
The protease stability score of the first is higher: 2.56 for the first, 0.835 for the second.

First: DEEKEHAHRFYEEWVKAWRTGDFKHMLDLIDPNTKIVINGQEYHGMEMWSHIVEHLERLHGYRINHERIHHIRNIDGKVDSDVHVRGRYNGRDIDSRMHIHLDVVDGRIKSLEFRSK
Second: DDSEEDALRILELLSDSMETGNWRLVSELLDPHVRLEVGDKTWVGMEEMKRLANQIRIHVHRVKFHHIDNFNGRVRVDGHIHGEIIVGDKIYRFRTRIEIDAVKINGQWVIEEMRIG
The protease stability score of the first is lower: 1.55 for the first, 1.61 for the second.

First: DEEEEIAHEMVRELVKVLETGDEEIWERLMDPNDRIHIGDKNLVGMDETRKWINEFMERIDHIRVRVRSIHPVDGRANLDTEITTHYNGRTTTYKVLLIVVKVNGRWVLESMHIK
Second: SDEEREIEHLARLFLEWWYTGDEDTIMKNADPHVRHDFNGVENIGRERVAEVVVHLIRELRIKSMHLHDIDIQGNKVDMNIELDGTYNGKRRKREMEIELVFINGRIKSSHVTIK
The protease stability score of the first is higher: 1.93 for the first, 1.17 for the second.

Compared with “DELREESEHARQLYWRSIFTGDEDHFEKLLDPNARVYVNGKNLHGREDVLRVFHELRFRRLHWHDFDDQGDKLFFITKTVVDFNGVKMEQRTELYLRKVDGRWHVEEIRFE”, “DEEDELLERTLKEVAHAWRTGDWRRIEEMFDPNARVDINGVNFVGREEMHRILHEMRIEIEDFKLRRKRIVDGRLELDGEMLGIFRQGDKERRHRSRVFIVILKIDGRWVFEEVRFH” is higher in protease stability score: 0.997 for the first, 2.43 for the second.

Going from “SEDQKFFEELVRLMYEYSLTGDWELSERLLDPNALIDIDGVEFHGREIFVESMRHIRLDHIEIRHVESINGRIHAKTEVDGTVNGQRRRRDVEIHLLKVNGRWYIRRVNFK” to “TDRHEIIIHRMKRLMLMELTGDEKLWERLVDPDVRIIFIFNGRRHEFHGREKALERLHDWWDHLRIDHLEVRRYDVINGRARTDMESHDTYDGQHYVIKFELVVQVIDGRVHSVEMIFK”, the protease stability score falls from 2.45 to 1.44.

Going from “SEHHEEATEATKHFVHLMRTGDFDRLLELADPHVRVRINGKNLIGREDLDKLWKELGLTNVDVRIDDFSHQGDKVEIHTREHFNGRTVDVIVILEKINGQWVIKRREQR” to “TEEDELRELAIRLLEESLRTGNEQDLRELFDPNTRIVIGNKDFHGMEHWVRWVFEWRKEHGIKMRIEVKRVDVQGDKIRIDTVLHIDVGDKHHVTRTELHAKKVDGKWFSTELRIN”, the protease stability score rises from 0.4 to 2.23.

Going from “TEEERIRRHAVELWVRSMRTGDEETSVDLADPRTKADINGVEIHGMEIVSKFFREMLEQYDVREFHIHSIDVIGDKVVTDMELILRVGDFENRTHIEFIVHKFDGKWRIEEIRLH” to “SEDEEHLKELSEMLIKNWLTGDEKKWDRLADPHAKLRINVNGRDRRRVGMENVHRALHHLFHELRIKHLRDKDSNLINGVSHIEGESTILVGDKEIDTRIVIHLLIIDGRLEEERIVIE”, the protease stability score falls from 0.934 to 0.178.

Going from “DEHEELLEHIIRLWLKYIHTGDFRNWMKYADPNAKWRTENHEHHGREEIARDLHEFNKKLGMEFRIDLRHFEIQGDKVRMHTEYILHIGDYTERRETEVTVIIVDGKIKSIRLLVR” to “SEEEEEWHRLIEHWMRKWLTGDEERLARLADPNVRLEDENHQSHGREEMARFLHEKILKLGVDHTRIRHYRDQGEYLHLDFEVEINGRRVRVKVHVVIIDGVVKELKFHVE”, the protease stability score falls from 1.67 to 1.19.

First: DEEEKEAVRHWELFMKAELTGDEEKLKNLADPNTRILFNGVEQIGWEELIRKLREIRIKLHDYRVHQVDRIDGRVILDFRVDIILYVGDKFFKHEIRVHVFILKYDGKWILEYEEIK
Second: SEDEELVELMMKLIMELRKTGDEESIRRLADPNVRLDFNGRDNHGREHATKWIRDIVEHLRLRRFEIHNVEFQGNKAVVRSRIIMDWDGQDFHLDVIIILNKFNGRWFIHSQIVH
The protease stability score of the first is lower: 0.736 for the first, 1.49 for the second.

Compared with “SEDEQLAREAIERLLQDFSTGNFERLMEMVDPNVRWEVGDFVSHGRENWSEHFRTYLEKMGFKHVNVRLKHIEVIGNKVIVHSEIIINVDGQELRMQSSSHVVKINGRWVLRSESHL”, “DETTDEMDKSLERFLDVVRTGDEHEDVHLADPHARIEFENRDIHGMKEHASQRIRVMLKFGWEVHIKFRHLRQVDGRLDVRLELRIKFDGVLYHLDTNEYWRKFDGRWVLDSMEFH” is lower in protease stability score: 2.06 for the first, 1.24 for the second.
